According to US20230348892A1:

Target: intC-ZF1-NLS-HA
Experiment: cell-based or functional assay

3xFLAG-NLS-VP64-intN showed a rec: Reconstitution of split TFs (fitted based on split inteins), model rate constant fitted to reporter data of 0.34 U^-1 h^-1.
